# Measurements taken from the Human Domainome abundance scans (Beltran et al. 2025).
# ± gives the uncertainty stated by the source.
# B1: Transcription elongation factor A N-terminal and central domain-containing protein, residues 30 to 77; numbered along this chain, Q8N8B7 (parent)
# chain: LTELETIYVTKEHLQETDVVRAVYRVLKNCPSVALKKKAKCLLSKWKA
# Variants of: B1
# Assay: abundance fitness (aPCA) (normalised: wild type 0, dead -1); higher = more abundant; growth selection in yeast, the domain comes from the species named
# Settings: Homo sapiens
row,Variant,abundance fitness
1,LTELETIYVTKEHLWETDVVRAVYRVLKNCPSVALKKKAKCLLSKWKA,0.069 ± 0.096
2,LTELETIYVTKEHLKETDVVRAVYRVLKNCPSVALKKKAKCLLSKWKA,0.209 ± 0.093
3,LTELETIYVTKEHLFETDVVRAVYRVLKNCPSVALKKKAKCLLSKWKA,-0.212 ± 0.16
4,LTELETIYVTKEHLQETDVVRAVDRVLKNCPSVALKKKAKCLLSKWKA,-0.217 ± 0.099
5,LTELETIYVTKEHLQETDVVRAVLRVLKNCPSVALKKKAKCLLSKWKA,0.205 ± 0.076
6,LTELETIYVTKEHLQETDVVRAVGRVLKNCPSVALKKKAKCLLSKWKA,-0.345 ± 0.068
7,LTELETIYVTKEHLQETDVVRAVYRVLKNCPSVALKKKAKCLLSKWVA,0.019 ± 0.099
8,LTELETIYVTKEHLQETDVVRAVYRVLKNCPSVALKKKAKCLLSKWGA,-0.605 ± 0.12
9,LTELETIYVTKEHLQETDVVRAVYRVLKNCPSVALKKKAKCLLSKWHA,-0.268 ± 0.16
10,LTELETIYVTKEHLQETDVVRAVYRVLKNCPSVALKKKAKCLLSKWTA,-0.351 ± 0.22
11,LTELETIYVTKEHLQEKDVVRAVYRVLKNCPSVALKKKAKCLLSKWKA,-0.14 ± 0.14
12,LTELETIYVTKEHLQEEDVVRAVYRVLKNCPSVALKKKAKCLLSKWKA,-0.315 ± 0.13
13,LTELETIYVTKEHLQESDVVRAVYRVLKNCPSVALKKKAKCLLSKWKA,-0.103 ± 0.1
14,LTELETIYVTKEHLQETDVVRAVYSVLKNCPSVALKKKAKCLLSKWKA,-0.257 ± 0.086
15,LTELETIYVTKEHLQETDVVRANYRVLKNCPSVALKKKAKCLLSKWKA,-1.04 ± 0.23
16,LTELETIYVTKEHLQETDVVRATYRVLKNCPSVALKKKAKCLLSKWKA,-0.122 ± 0.11
17,LTELETIYVTKEMLQETDVVRAVYRVLKNCPSVALKKKAKCLLSKWKA,-0.133 ± 0.084
18,LTELETIYVTKENLQETDVVRAVYRVLKNCPSVALKKKAKCLLSKWKA,0.07 ± 0.078
19,LTELETIYVTKEFLQETDVVRAVYRVLKNCPSVALKKKAKCLLSKWKA,-0.428 ± 0.091
20,LTELETIYVTKEHLQETQVVRAVYRVLKNCPSVALKKKAKCLLSKWKA,-0.07 ± 0.12
21,LTELETIYVTKEHLQETDVVRAVYRVLKNCPSVALKKKAKCLLSKVKA,-0.035 ± 0.094
22,LTELETIYVTKEHLQETDVVRAVYRVLKNCPSVALKKKAKCLLSKRKA,-0.758 ± 0.12

row,Variant,abundance fitness
1,LTELETIYVVKEHLQETDVVRAVYRVLKNCPSVALKKKAKCLLSKWKA,-0.18 ± 0.12
2,LTELETIYVSKEHLQETDVVRAVYRVLKNCPSVALKKKAKCLLSKWKA,-0.121 ± 0.084
3,LWELETIYVTKEHLQETDVVRAVYRVLKNCPSVALKKKAKCLLSKWKA,-0.711 ± 0.18
4,LLELETIYVTKEHLQETDVVRAVYRVLKNCPSVALKKKAKCLLSKWKA,-0.389 ± 0.1
5,LKELETIYVTKEHLQETDVVRAVYRVLKNCPSVALKKKAKCLLSKWKA,0.11 ± 0.12
6,LTEMETIYVTKEHLQETDVVRAVYRVLKNCPSVALKKKAKCLLSKWKA,0.022 ± 0.095
7,LTELETIYVTKEHLQETDVVRAVYRVLKNCPSVALKKKAKCPLSKWKA,-1.01 ± 0.35
8,LTELETIYVTKEHLQETDVVRAVYRVLKNCPSVALKKKAKCYLSKWKA,-0.737 ± 0.28
9,LTELETIYVTKEHLQETDVVRAVYRVLKNCPSVALKKKAKCCLSKWKA,-0.839 ± 0.36
10,LTELETIYVTKEHLQETDVVRAVYRVLKNCPSVALKKKAKCWLSKWKA,-0.026 ± 0.098
11,LTELETIYVTKEHLQETDVVRAVYRVLKNCPSVALKKKAKCLLWKWKA,-0.237 ± 0.13
12,LTELETIYVTKEHLQETDVVRAVYRVLKNCPSVALKKDAKCLLSKWKA,-0.885 ± 0.35
13,LTELETIYVTKEHLQETDVVRAVYRVLKNCPSVALKKFAKCLLSKWKA,-0.193 ± 0.31
14,LTELETIYVTKEHLQETDVVRAVYRVYKNCPSVALKKKAKCLLSKWKA,-0.352 ± 0.14
15,LTELETIYVTKEHLQETDVVRAVYRVDKNCPSVALKKKAKCLLSKWKA,-0.901 ± 0.23
16,LTELETIYVTKEHLQETDVVRAVYRVQKNCPSVALKKKAKCLLSKWKA,-0.648 ± 0.27
17,LTELETIYVTKEHLQETDVVRAVYRVLKNCPSGALKKKAKCLLSKWKA,0.012 ± 0.068
18,LTELETIYVTKEHLQETDVVRAVYRVLKNCPSSALKKKAKCLLSKWKA,0.089 ± 0.09
19,LTELETIYVTKEHLQETDVVRAVYRVLKNCPSPALKKKAKCLLSKWKA,0.129 ± 0.11
20,LTELETIYVTKEHLQETDVVRAVYRVLKNCPSAALKKKAKCLLSKWKA,-0.016 ± 0.081
21,LTELETIYVTKEHLQETDVVRAVYRVLKNCPSRALKKKAKCLLSKWKA,0.155 ± 0.064
22,LTELETIYVTKEHLQETDVVRAVYRVLKNCPIVALKKKAKCLLSKWKA,0.27 ± 0.13

row,Variant,abundance fitness
1,LTELETIYVTKEHLQETDVVRAVYRVLKNCPAVALKKKAKCLLSKWKA,0.103 ± 0.15
2,LTELETIYVTKEHLQETDVVRAVYRVLKNCPKVALKKKAKCLLSKWKA,-0.155 ± 0.078
3,LTELCTIYVTKEHLQETDVVRAVYRVLKNCPSVALKKKAKCLLSKWKA,-0.897 ± 0.17
4,LTELQTIYVTKEHLQETDVVRAVYRVLKNCPSVALKKKAKCLLSKWKA,-0.498 ± 0.18
5,LTELTTIYVTKEHLQETDVVRAVYRVLKNCPSVALKKKAKCLLSKWKA,-1.17 ± 0.23
6,LTELNTIYVTKEHLQETDVVRAVYRVLKNCPSVALKKKAKCLLSKWKA,-0.587 ± 0.17
7,LTELETIYVTKEHSQETDVVRAVYRVLKNCPSVALKKKAKCLLSKWKA,0.296 ± 0.066
8,LTELETIYVTKEHLQETDRVRAVYRVLKNCPSVALKKKAKCLLSKWKA,0.037 ± 0.09
9,LTELETIYVTKEHLQETDQVRAVYRVLKNCPSVALKKKAKCLLSKWKA,-0.464 ± 0.21
10,LTELETIYVTKEHLQETDVVRAVYRVLKNCPSVALHKKAKCLLSKWKA,-0.633 ± 0.18
11,LTELETIYVTKEHLQETDVVRAVYRVLKNCPSVALLKKAKCLLSKWKA,-0.137 ± 0.079
12,STELETIYVTKEHLQETDVVRAVYRVLKNCPSVALKKKAKCLLSKWKA,-0.501 ± 0.31
13,LTELELIYVTKEHLQETDVVRAVYRVLKNCPSVALKKKAKCLLSKWKA,-0.616 ± 0.091
14,LTELENIYVTKEHLQETDVVRAVYRVLKNCPSVALKKKAKCLLSKWKA,-0.514 ± 0.21
15,LTELEKIYVTKEHLQETDVVRAVYRVLKNCPSVALKKKAKCLLSKWKA,-0.059 ± 0.096
16,LTELEYIYVTKEHLQETDVVRAVYRVLKNCPSVALKKKAKCLLSKWKA,-0.513 ± 0.32
17,LTELETIYVTKEHLQETDVVRAVYRVLKNCPSVALKKKAKCLLSKWKH,-0.331 ± 0.23
18,LTELETIYVTKEHLQETDVVMAVYRVLKNCPSVALKKKAKCLLSKWKA,-0.333 ± 0.41
19,LTELETIYVTKEHLQETDVVNAVYRVLKNCPSVALKKKAKCLLSKWKA,-0.113 ± 0.15
20,LTELETIYVTKEHLQETDVVCAVYRVLKNCPSVALKKKAKCLLSKWKA,-0.468 ± 0.13
21,LTELETIYVTKEHLQETDVVTAVYRVLKNCPSVALKKKAKCLLSKWKA,-0.413 ± 0.15
22,LTELETIYVTKEHLQETDVVRAVYRFLKNCPSVALKKKAKCLLSKWKA,0.126 ± 0.11

row,Variant,abundance fitness
1,LTELETIYVTKEHLQETDVVRAVYRTLKNCPSVALKKKAKCLLSKWKA,0.279 ± 0.12
2,LTELETIYVTKEHLQETDVVRAVYRALKNCPSVALKKKAKCLLSKWKA,0.154 ± 0.076
3,LTELETIYVTKEHLQETDVVRAVYRLLKNCPSVALKKKAKCLLSKWKA,-0.172 ± 0.088
4,LTMLETIYVTKEHLQETDVVRAVYRVLKNCPSVALKKKAKCLLSKWKA,-0.045 ± 0.16
5,LTKLETIYVTKEHLQETDVVRAVYRVLKNCPSVALKKKAKCLLSKWKA,-0.195 ± 0.12
6,LTYLETIYVTKEHLQETDVVRAVYRVLKNCPSVALKKKAKCLLSKWKA,-0.207 ± 0.16
7,LTLLETIYVTKEHLQETDVVRAVYRVLKNCPSVALKKKAKCLLSKWKA,-0.07 ± 0.095
8,LTQLETIYVTKEHLQETDVVRAVYRVLKNCPSVALKKKAKCLLSKWKA,-0.222 ± 0.17
9,LTELETIYVTKLHLQETDVVRAVYRVLKNCPSVALKKKAKCLLSKWKA,-0.792 ± 0.096
10,LTELETIYVTKHHLQETDVVRAVYRVLKNCPSVALKKKAKCLLSKWKA,-0.606 ± 0.17
11,LTELETIYVTKFHLQETDVVRAVYRVLKNCPSVALKKKAKCLLSKWKA,-0.742 ± 0.16
12,LTELETIYVTKEHLQETDVVRAVYRVLKNCPSVALKKKAKCLQSKWKA,-0.527 ± 0.14
13,LTELETIYVTKEHLQETDVVRAVYRVLKNCPSVALKKKAKCLCSKWKA,-0.647 ± 0.21
14,LTELETIYVTKEHLQETDVVRAVYRVLKNCPSVALKKKAKCLPSKWKA,-0.789 ± 0.29
15,LTELETIYVTKEHLQETDVVRLVYRVLKNCPSVALKKKAKCLLSKWKA,-0.119 ± 0.074
16,LTELETIYVTKEHLQETDVVRIVYRVLKNCPSVALKKKAKCLLSKWKA,-0.419 ± 0.2
17,LTELETIYVTKEHLQETDVVRAVYRVLKNCPSVALKKKAKILLSKWKA,-0.202 ± 0.47
18,LTELETIYVTKEHLQETDVVRAVYRVLKNCPSVALKKKAKRLLSKWKA,0.167 ± 0.09
19,LTELETIYVTKEHLQETDVERAVYRVLKNCPSVALKKKAKCLLSKWKA,-0.561 ± 0.18
20,LTELETIYVTKEHLQETDVWRAVYRVLKNCPSVALKKKAKCLLSKWKA,0.07 ± 0.1
21,LTELETIYVTKEHLQETDVDRAVYRVLKNCPSVALKKKAKCLLSKWKA,-0.215 ± 0.15
22,LTELETIYVTKEHLQETDVVRAVYRVLGNCPSVALKKKAKCLLSKWKA,-0.402 ± 0.083

row,Variant,abundance fitness
1,LTELETIYVTKEHLQETDVVRAVYRVLFNCPSVALKKKAKCLLSKWKA,-0.247 ± 0.13
2,LTELETIYVTKEHLQETDVVRAVYRVLANCPSVALKKKAKCLLSKWKA,-0.509 ± 0.09
3,LTELETIYVTKEHLQETDVVRAVYRVLDNCPSVALKKKAKCLLSKWKA,-0.789 ± 0.19
4,LTELETNYVTKEHLQETDVVRAVYRVLKNCPSVALKKKAKCLLSKWKA,0.081 ± 0.16
5,LTELETQYVTKEHLQETDVVRAVYRVLKNCPSVALKKKAKCLLSKWKA,0.015 ± 0.11
6,LTELETPYVTKEHLQETDVVRAVYRVLKNCPSVALKKKAKCLLSKWKA,0.091 ± 0.13
7,LTELETSYVTKEHLQETDVVRAVYRVLKNCPSVALKKKAKCLLSKWKA,0.147 ± 0.087
8,LTELETIYVTFEHLQETDVVRAVYRVLKNCPSVALKKKAKCLLSKWKA,-0.747 ± 0.22
9,LTELETIYVTDEHLQETDVVRAVYRVLKNCPSVALKKKAKCLLSKWKA,-0.021 ± 0.12
10,LTELETIYVTKEHLQETDVVRAVYRVLKNAPSVALKKKAKCLLSKWKA,-0.338 ± 0.11
11,LTELETIYVTKEHLQVTDVVRAVYRVLKNCPSVALKKKAKCLLSKWKA,-0.279 ± 0.087
12,LTELETIAVTKEHLQETDVVRAVYRVLKNCPSVALKKKAKCLLSKWKA,0.274 ± 0.17
13,LTELETISVTKEHLQETDVVRAVYRVLKNCPSVALKKKAKCLLSKWKA,-0.388 ± 0.28
14,LTELETIYPTKEHLQETDVVRAVYRVLKNCPSVALKKKAKCLLSKWKA,-0.027 ± 0.13
15,LTELETIYETKEHLQETDVVRAVYRVLKNCPSVALKKKAKCLLSKWKA,0.318 ± 0.087
16,LTELETIYVTKEHLQETDVVRAVYRVLKLCPSVALKKKAKCLLSKWKA,0.004 ± 0.076
17,LTELETIYVTKEHLQETDVVRAVYRVLKFCPSVALKKKAKCLLSKWKA,-0.09 ± 0.15
18,LTELETIYVTKEHLQETDVVRAVYRVLKGCPSVALKKKAKCLLSKWKA,-0.282 ± 0.074
19,LTELETIYVTKEHLQETDVVRAVYRVLKICPSVALKKKAKCLLSKWKA,-0.167 ± 0.13
20,LTELETIYVTKEHLQETDVVRAVYRVLKCCPSVALKKKAKCLLSKWKA,0 ± 0.11
